Experiment [1] deals with T1, biotinylated recombinant human IL-12Rβ2 (human, UniProt Q99665 24-622, random biotinylated).
T1 construct: Recombinant protein produced in-house; also called hIL-12RB2; human IL-12RB2
T1 sequence: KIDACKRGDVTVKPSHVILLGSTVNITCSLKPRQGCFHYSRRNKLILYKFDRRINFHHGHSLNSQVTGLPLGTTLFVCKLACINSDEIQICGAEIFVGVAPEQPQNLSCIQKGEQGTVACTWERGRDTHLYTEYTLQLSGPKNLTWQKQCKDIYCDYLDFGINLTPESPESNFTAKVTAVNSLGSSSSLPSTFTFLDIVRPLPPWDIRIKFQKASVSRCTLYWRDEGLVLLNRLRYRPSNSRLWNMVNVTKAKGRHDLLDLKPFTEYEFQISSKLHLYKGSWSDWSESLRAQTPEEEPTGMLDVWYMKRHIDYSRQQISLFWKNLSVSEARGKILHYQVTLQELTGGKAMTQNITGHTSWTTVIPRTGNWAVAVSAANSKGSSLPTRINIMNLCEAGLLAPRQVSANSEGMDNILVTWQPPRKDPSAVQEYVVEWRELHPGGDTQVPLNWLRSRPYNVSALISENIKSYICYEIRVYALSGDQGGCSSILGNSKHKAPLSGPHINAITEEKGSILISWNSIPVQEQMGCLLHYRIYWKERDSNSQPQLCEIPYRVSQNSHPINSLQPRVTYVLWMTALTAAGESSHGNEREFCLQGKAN
The experiment is described as follows: BLI, P.E., off-rate ranking. On the technique in general: In BLI a coated tip is dipped into the sample, and binding shifts an interference pattern.

Experiment [2] has as its target T2, biotinylated recombinant mouse IL-12Rβ2 (mouse, UniProt P97378 24-637, random biotinylated).
T2 construct: Recombinant protein produced in-house; also called mIL-12RB2; mouse IL-12RB2
T2 sequence: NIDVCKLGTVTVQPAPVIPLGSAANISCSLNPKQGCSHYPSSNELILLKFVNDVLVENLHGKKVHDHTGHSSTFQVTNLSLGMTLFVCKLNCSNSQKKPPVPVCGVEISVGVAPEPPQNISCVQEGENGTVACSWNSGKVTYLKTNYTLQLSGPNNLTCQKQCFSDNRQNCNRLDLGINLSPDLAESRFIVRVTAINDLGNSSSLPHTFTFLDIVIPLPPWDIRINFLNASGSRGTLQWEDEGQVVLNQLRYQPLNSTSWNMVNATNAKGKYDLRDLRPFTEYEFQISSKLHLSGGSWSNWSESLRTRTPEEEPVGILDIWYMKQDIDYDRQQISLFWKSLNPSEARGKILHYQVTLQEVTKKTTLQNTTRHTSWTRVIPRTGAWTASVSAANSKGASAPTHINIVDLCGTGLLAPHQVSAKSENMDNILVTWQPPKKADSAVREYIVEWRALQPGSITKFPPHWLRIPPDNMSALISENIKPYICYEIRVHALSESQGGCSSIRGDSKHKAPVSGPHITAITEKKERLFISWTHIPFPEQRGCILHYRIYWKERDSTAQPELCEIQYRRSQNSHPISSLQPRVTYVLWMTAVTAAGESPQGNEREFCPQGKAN
The experiment is described as follows: ELISA, P.E., biotinylated antigen. For orientation: An ELISA detects its analyte on a solid surface through an enzyme-linked reagent.

For experiment [3], the target named is T1, biotinylated recombinant human IL-12Rβ2. Briefly: ELISA, P.E., biotinylated antigen.

For orientation: koff means the rate constant with which the complex falls apart.

B1: anti-IL-12Rβ2 VHH clone 2CRH33 (clone ID 20363) (VHH, not shown: small tags and cut ends)
VHH: QVQLQESGGGSVQPGWSLRLTCAASGFTFSTSGMHWFRQAPGKGLEWVSSISSGGGDTYYTDSVKGRITISRDNAKNTLYLQLNDLKSEDTAVYYCSKDPSGATRGQGTQVTVSS
notes: periplasmic extract
Take B1: in experiment [1], the Response amounted to 0.621 and the koff came out at 0.00491 s⁻¹. Also, the “ELISA mIL-12RB2/control” value in experiment [2] was 0.971. Moreover, the “ELISA hIL-12RB2/control” value in experiment [3] was 6.44.

B2: anti-IL-12Rβ2 VHH clone 2CRH60 (clone ID 20367) (VHH, not shown: small tags and cut ends)
VHH: QVQLQESGGGSVQPGGSLRLTCAASGFTFSTSGMHWFRQAPGKGLEWVSSISSGGGDTYYTDSVKGRITISRDNAKNTLYLQLNDLKSEDTAVYYCSKDPSGATRGQGTQVTVSS
notes: periplasmic extract
For the molecule B2, in experiment [1], the Response was determined as 0.661 and the koff was 0.00533 s⁻¹. In addition, the “ELISA mIL-12RB2/control” value in experiment [2] came out at 0.866. Moreover, the “ELISA hIL-12RB2/control” value in experiment [3] is 5.31.

B3: anti-IL-12Rβ2 VHH clone 3CRHS9 (clone ID 20415) (VHH, not shown: small tags and cut ends)
VHH: QVQLQESGGGLVQPGGSLRLSCTASGSIVSIYNMDWYRQAPGNEREWVASITSSGDPYYDGSAKGRFTISRDNAKMTVYLQMNSLKPEDTAVYYCKVPTEKGNYWGQGTQVTVSS
notes: periplasmic extract
On to B3, for which, in experiment [1], the Response is 0.222 and the koff amounted to 0.0034 s⁻¹. The “ELISA mIL-12RB2/control” value in experiment [2] was 1.09. Further, in experiment [3], the “ELISA hIL-12RB2/control” value stood at 5.08.

B4: anti-IL-12Rβ2 VHH clone 3CRH27 (clone ID 20379) (VHH, not shown: small tags and cut ends)
VHH: QVQLQESGGGLVQAGGSLRLSCTASGSIVSIYNMDWYRQAPGNEREWVASITSSGDPYYDGSAKGRFTISRDNAKMTVYLQMNSLKPEDTAVYYCKVPTEKGNYWGQGTQVTVSS
notes: periplasmic extract
For the molecule B4, in experiment [1], the Response is 0.138 and the off-rate (koff) was 0.00264 s⁻¹. Moreover, the “ELISA mIL-12RB2/control” value in experiment [2] amounted to 1.44. In addition, in experiment [3], the “ELISA hIL-12RB2/control” value came out at 10.2.

B5: anti-IL-12Rβ2 VHH clone 3CRH18 (clone ID 20377) (VHH, not shown: small tags and cut ends)
VHH: QVQLQESGGGLVQPGGSLRLSCTASGNIVSIYNMDWYRQAPGNQREWVASITSSGDPYYDGSAKGRFTISRDNAKMTVYLQMNSLRPEDTAVYYCKVPTEKGNYWGQGTQVTVSS
notes: periplasmic extract
Consider B5, for which, in experiment [1], the Response was -0.19. Besides, the “ELISA mIL-12RB2/control” value in experiment [2] is 1.8. Further, the “ELISA hIL-12RB2/control” value in experiment [3] was 5.84.

B6: anti-IL-12Rβ2 VHH clone 3CRHS55 (clone ID 20423) (VHH, not shown: small tags and cut ends)
VHH: QVQLQESGGGLVQAGGSLNLSCTASGSIISIYNMDWYRQAPGNQREWVASITSNGDSYYDGSAKGRFTISRDNAKMTVYLQMNSLKPEDTAVYYCKVPTENGNYWGQGTQVTVSS
notes: periplasmic extract
B6: in experiment [1], the Response turned out to be 0.204 and the koff came out at 0.00296 s⁻¹. In experiment [2], the “ELISA mIL-12RB2/control” value turned out to be 1.11. In experiment [3], the “ELISA hIL-12RB2/control” value worked out at 3.76.

B7: anti-IL-12Rβ2 VHH clone 3CRHS148 (clone ID 20436) (VHH, not shown: small tags and cut ends)
VHH: QVQLQESGGGLVQPGGSLRLSCIASGSIFSIYNMDWYRQAPGNQREWVASITPSGDPYYDDSAKGRFTISRDNAKMTVYLQMNSLKPEDTAVYYCKVPTEKGNYWGQGTQVTVSS
notes: periplasmic extract
With B7, the Response in experiment [1] is 0.0184. Further, the “ELISA mIL-12RB2/control” value in experiment [2] was determined as 0.74. Also, in experiment [3], the “ELISA hIL-12RB2/control” value stood at 3.36.

B8: anti-IL-12Rβ2 VHH clone 3CRHS3 (clone ID 20414) (VHH, not shown: small tags and cut ends)
VHH: QVQLQESGGGLVQPGGSLRLSCTASGSIFSIYNMDWYRQAPGNQREWVASITSSGDPYYDASVKGRFTISRDSAKMTVYLQMNSLKPEDTAVYYCKLPTEKGNYWGQGTQVTVSS
notes: periplasmic extract
On to B8, for which, in experiment [1], the Response is 0.327 and the koff worked out at 0.00225 s⁻¹. For the same molecule, the “ELISA mIL-12RB2/control” value in experiment [2] was found to be 1.05. For the same molecule, the “ELISA hIL-12RB2/control” value in experiment [3] was 6.39.

B9: anti-IL-12Rβ2 VHH clone 3CRHS100 (clone ID 20428) (VHH, not shown: small tags and cut ends)
VHH: QVQLQESGGGLVQPGGSLRLSCTASGSIFSIYNMDWYRQAPGNQREWVASITPSGDPYYDDSAKGRFTISRDNAKMTVYLQMNSLKPEDTAVYYCKVPTEKGNYWGQGTQVTVSS
notes: periplasmic extract
As for B9, in experiment [1], the Response was 0.209 and the koff worked out at 0.00322 s⁻¹. Moreover, the “ELISA mIL-12RB2/control” value in experiment [2] turned out to be 1.05. Also, in experiment [3], the “ELISA hIL-12RB2/control” value worked out at 5.88.

B10: anti-IL-12Rβ2 VHH clone 3CRH68 (clone ID 20388) (VHH, not shown: small tags and cut ends)
VHH: QVQLQESGGGLVQPGGSLRLSCTASGSILSIYNMDWYRQVPGNQREWVASITPSGDPYYDGSVKGRFTISRDNAKMMVYLQMNSLKPEDTAVYYCKVPTEKGNYWGQGTQVTVSS
notes: periplasmic extract
Take B10: in experiment [1], the Response was found to be 0.426 and the koff was 0.00444 s⁻¹. Moreover, the “ELISA mIL-12RB2/control” value in experiment [2] worked out at 1.03. For the same molecule, the “ELISA hIL-12RB2/control” value in experiment [3] came to 4.66.

B11: anti-IL-12Rβ2 VHH clone 3CRHS54 (clone ID 20422) (VHH, not shown: small tags and cut ends)
VHH: QVQLQESGGGLVQPGGSLRLSCTASGSIVSIYNMDWYRQAPGNEREWVASITSSGDPYYDGSAKGRFTISRDNAKMTVYLQMNSLEPEDTAVYFCKVPTEKGNYWGQGTQVTVSS
notes: periplasmic extract
Consider B11, for which, in experiment [1], the Response is 0.203 and the dissociation rate constant (koff) was found to be 0.00272 s⁻¹. The “ELISA mIL-12RB2/control” value in experiment [2] amounted to 1.26. Also, the “ELISA hIL-12RB2/control” value in experiment [3] was 7.85.

B12: anti-IL-12Rβ2 VHH clone 3CRHS1 (clone ID 20412) (VHH, not shown: small tags and cut ends)
VHH: QVQLQESGGGSVQPGGSLRLSCAASGFTFSTSGMHWFRQAPGKGLEWVSSIGIIVDSSYYASSVKGRFTISRDNAKNTLYLQMNSLKSEDTAVYYCSKDPTGSSRGQGTQVTVSS
notes: periplasmic extract
B12: in experiment [1], the Response was found to be 0.3 and the dissociation rate constant (koff) amounted to 0.00283 s⁻¹. In experiment [2], the “ELISA mIL-12RB2/control” value was 1.01. The “ELISA hIL-12RB2/control” value in experiment [3] is 6.74.

B13: anti-IL-12Rβ2 VHH clone 2CRH80 (clone ID 20371) (VHH, not shown: small tags and cut ends)
VHH: QVQLQESGGGLVQPGGSLRLSCAASGFTFSTSGMHWFRQAPGKGLEWVSSIGIIVGSSYYASSVKGRFTISRDNAKNTLYLHMNSLKSEDTAVYYCSKDVTGSSRGQGTQVTVSS
notes: periplasmic extract
With B13, in experiment [1], the Response turned out to be 0.53 and the koff is 0.00353 s⁻¹. In experiment [2], the “ELISA mIL-12RB2/control” value was found to be 1.23. Besides, the “ELISA hIL-12RB2/control” value in experiment [3] was found to be 5.01.

B14: anti-IL-12Rβ2 VHH clone 2CRH10 (clone ID 20362) (VHH, not shown: small tags and cut ends)
VHH: QVQLQESGGGLVQAGGSLVLSCAASGSAALIFLMSWYRQAPGKQRELVAEVSRGGSTTYADSVEGRFHISRDNAKNIVDLQMNSLKPEDTAVYYCKADQNYGDSLRSSWGRGTQVTVSS
notes: periplasmic extract
Take B14: in experiment [1], the Response stood at 0.496 and the koff was found to be 0.00524 s⁻¹. For the same molecule, the “ELISA mIL-12RB2/control” value in experiment [2] is 0.886. Further, the “ELISA hIL-12RB2/control” value in experiment [3] is 6.22.

B15: anti-IL-12Rβ2 VHH clone 3CRHS184 (clone ID 20441) (VHH, not shown: small tags and cut ends)
VHH: QVQLQESGGGLVQAGGSLVLSCAASGSAALIFLMSWYRQAPGKQRELVAEVSRYGSTTYADSVEGRFTISRDNAKNIVDLQMNSLKPEDTAVYYCKADQYYGDSLRSSWGRGTQLTVSS
notes: periplasmic extract
For the molecule B15, in experiment [1], the Response was found to be 0.515 and the koff was 0.00385 s⁻¹. Besides, the “ELISA mIL-12RB2/control” value in experiment [2] was found to be 1.06. In experiment [3], the “ELISA hIL-12RB2/control” value worked out at 4.17.

B16: anti-IL-12Rβ2 VHH clone 3CRH5 (clone ID 20373) (VHH, not shown: small tags and cut ends)
VHH: QVQLQESGGGLVQAGGSLVLSCAASGSAALIFLMSWYRQAPGKQRELVAEVSRGGSTTYADSVEGRFTISRDNAKNIVDLQMNSLKPEDTAVYYCKADQNYGDSLRSSWGQGTQVTVSS
notes: periplasmic extract
As to B16, in experiment [1], the Response was found to be 0.491 and the koff came out at 0.00337 s⁻¹. Besides, in experiment [2], the “ELISA mIL-12RB2/control” value was 0.808. In addition, the “ELISA hIL-12RB2/control” value in experiment [3] came to 8.64.

B17: anti-IL-12Rβ2 VHH clone 2CRH73 (clone ID 20369) (VHH, not shown: small tags and cut ends)
VHH: QVQLQESGGGLVQAGGSLRLTCTASGSAALIFLMSWYRQAPGKQRELVAEVSRRGSTTYADSVEGRFTISRDNAKNIVDLQMNSLKPEDTAVYYCKADQYYGDSLRSSWGRGTQVTVSS
notes: periplasmic extract
For the molecule B17, in experiment [1], the Response was determined as 0.547 and the koff came to 0.00536 s⁻¹. In experiment [2], the “ELISA mIL-12RB2/control” value came to 0.606. The “ELISA hIL-12RB2/control” value in experiment [3] was found to be 4.37.
